Source: US20170198014A1, “POLYPEPTIDES AND THEIR USE FOR TREATING INFLUENZA” ([…] ITS CENTER FOR COMMERCIALIZATION, priority 2014, published 2017)
pKd: −log10 of the molar value.

Legend:
[1] = molecular target: H1 (A/NewCaledonia/20/1999) (Influenza A virus, UniProt Q6WG00); conditions: read-out: affinity constant via yeast surface display
[2] = molecular target: H1 (A/Solomonislands/3/2006) (Influenza A virus, UniProt A7UPX0); conditions: read-out: affinity constant via yeast surface display
[3] = molecular target: H3 (A/Hong Kong/1/1968) (Influenza A virus, UniProt Q91MA7); conditions: read-out: affinity constant via yeast surface display
[4] = molecular target: H2 (A/Adachi/2/1957) (Influenza A virus, UniProt B5UA22); conditions: read-out: affinity constant via yeast surface display
[5] = molecular target: H2N2 A/Adachi/2/1957 (Influenza A virus, UniProt B5UA22); conditions: read-out: Kd (binding constant)
[6] = molecular target: HA of H3N2 A/Hong Kong/1/1968 (Influenza A virus, UniProt Q91MA7); conditions: read-out: Kd (binding constant)
[7] = molecular target: H3N2 A/Victoria/361/2011; format: binding, Influenza A
[8] = test system: H3N2 A/Victoria/361/2011; format: binding, Influenza A; remark: listed apart in the source
[9] = molecular target: H1N1 A/New Caledonia/20/1999 (Influenza A virus, UniProt Q6WG00); conditions: read-out: Kd (binding constant)
[10] = test system: H1, H2 and H3; format: binding, Influenza A

H1 (A/Solomonislands/3/2006), sequence (A7UPX0 1-565): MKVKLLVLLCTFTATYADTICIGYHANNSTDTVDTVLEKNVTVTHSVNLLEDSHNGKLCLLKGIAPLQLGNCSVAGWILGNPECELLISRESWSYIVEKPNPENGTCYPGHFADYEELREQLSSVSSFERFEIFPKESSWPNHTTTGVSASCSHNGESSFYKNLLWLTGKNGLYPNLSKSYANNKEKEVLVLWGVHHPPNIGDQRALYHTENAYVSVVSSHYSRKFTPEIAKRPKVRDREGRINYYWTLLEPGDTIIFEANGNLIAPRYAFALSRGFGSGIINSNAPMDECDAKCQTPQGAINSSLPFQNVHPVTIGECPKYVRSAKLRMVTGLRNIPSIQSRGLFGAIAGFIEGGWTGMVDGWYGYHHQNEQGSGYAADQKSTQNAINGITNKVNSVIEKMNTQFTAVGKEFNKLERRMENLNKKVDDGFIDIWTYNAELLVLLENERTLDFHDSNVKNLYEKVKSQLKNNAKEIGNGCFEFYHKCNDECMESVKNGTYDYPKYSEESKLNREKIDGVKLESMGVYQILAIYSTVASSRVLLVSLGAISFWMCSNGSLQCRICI

GIVNVPN(P/C)NTTKYQQLARRAIAIYNNNQNAHLEFVENLN(V/C)KEQTGLGIMYYITLAATDDAGKKKIYKAKIAVVESAGWVAVSEFKLV [52Sing2]
pKd [1]: 7.35
pKd [2]: 7.76

GIVNVPN(P/C)NTTKYQQLARSAIAIYNNHQNAHLEFVENLN(V/C)KEQVSYGAMYYITLAATDDAGKKKIYKAKVGVVESAGWVGVEEFKLV [52alt1-3]
pKd [3]: 8.52
pKd [4]: 8.07

GIVNVPN(P/C)NTTKYQQLARSAIAIYNYHQNAHLEFVENLN(V/C)KEQLGEGDMYYITLAATDDAGKKKIYKAKIGVVESAGWTGVEEFKLV [52NC-2]
pKd [5]: 6.54
pKd [1]: 7.57
pKd [3]: 8.41
pKd [6]: 6.74
pKd [2]: 8.36
Kd (binding constant) [7]: could not be detected
pKd [4]: 8.02
binding by yeast display titrations [8]: could not be detected
pKd [9]: 6.27
binding to HA subtypes [10]: binding to all three subtypes H1, H2 and H3

GIVNVPN(P/C)NTTKYQQLARSAIAIYNYHQNAHLEFVENLN(V/C)KEQVGGMNMYYITLAATDDAGKKKIYKAKVGVVESAGWKGVEEFKLV [52solo1]
pKd [1]: 7.68
pKd [3]: 7.45
pKd [2]: 8.74
pKd [4]: < 6.46

GIVNVPN(P/C)NTTKYQQLARSAIAVYNYHQNAHLEFVENLN(V/C)KEQIAGKTMYYITLAATDDAGKKKIYKAKVGVVESAGWEGVEEFKLV [52solo2]
pKd [1]: 8.04
pKd [2]: 8.77
